{
  "source": "the DeepSol protein solubility set",
  "data": [
    {"experiment": "soluble on expression in E. coli; label from the status in PepcDB or PDB records", "values": [
      {"sequence": "MSQIIIKTPQEIEKMRVAGRLAAEVLEMITPFVKEGVTTAELDKICHEYIVKEQDAYPAPLNYHGFPKSICASINHVVCHGIPADKKLKNGDILNIDITVKKDGYHGDTSKMFMIGEPSVMAKKLVEVTHECLWKGIEVVKPGNHFGDIGAAIEKHAKKFGYSIVDAFCGHGIGANFHEPPHVMHHGKAGTGAMFEEGMIFTIEPMINIGKRAVSVLKDGWTAVTKDRSLSAQWEHTILVTKDGYEVLTLREEEKN", "soluble on expression in E. coli": "not soluble"},
      {"sequence": "MQIITTTFIQKVILGSHQLHEQLSIVEARMIESAIVSMLTESFCENEQTLKYLARLLSPMSYMDVINARRGKKICGYPLCYKSAAENSSDGFFIHSMYCNNYHSKCSLYLMRQLSQTPLHERRGVHLTSYINLEFDDMYSVSLLEELVGSEVPIDTVKSLITSFKDLEFDDTYKNEPLPLDVYFGQLTTDEETCIE", "soluble on expression in E. coli": "not soluble"},
      {"sequence": "MDAKETSATDLKRPREEDDNGGAATMETENGDQKKEPACFSTVIPGWFSEMSPMWPGEAHSLKVEKVLFQGKSDYQDVIVFQSATYGKVLVLDGVIQLTERDECAYQEMITHLPLCSIPNPKKVLVIGGGDGGVLREVARHASIEQIDMCEIDKMVVDVSKQFFPDVAIGYEDPRVNLVIGDGVAFLKNAAEGSYDAVIVDSSDPIGPAKELFEKPFFQSVARALRPGGVVCTQAESLWLHMDIIEDIVSNCREIFKGSVNYAWTSVPTYPSGVIGFMLCSTEGPDVDFKHPLNPIDESSSKSNGPLKFYNAEIHSAAFCLPSFAKKVIESKAN", "soluble on expression in E. coli": "soluble"},
      {"sequence": "MGSDKIHHHHHHMSSSHSKNGNENETAKGITRISVSGYKSLYDECSIEIRPLTILAGANSSGKSSIIQPLLLMKQTLEATYDPGALLLNGANVKFTSAEQLISHLPGKERIQRFVIGIEIEHNQSVKNIFTKFPRQPIDLQEMIVEKNDSKVSLSTDTLPADVVNILPKQYLDFYKSIQDTDLKGKFFFIISRNRCFLEFELYDFINQKKLSSQSFLFNYITPDHTELFGRQIRKIIHIPGLRGNPERNYKTTAVGDAFPGTFDNYVASIIHRWQRPRDKRLQELNNALVSLGLTSKVQAKQLDDTQVELRVARLTRNSDNEKDMVSIADVGFGVSQTLPVLVALLVAEPGQLVYIEQPEIHLHPRAQVAMAEILANAAKRGVKIVVETHSDRLILATQSLVAEGNLSPDLVKLHWFTRQEDGITKINSADLDETGAFGDWPEDFGDVSLQLENRYLSAAEARLIQGTHGG", "soluble on expression in E. coli": "not soluble"},
      {"sequence": "MGHHHHHHSHMEFRSVAERICGDIVLSENSGEALRKWRSIFNASQSDLARKLGISPSVISDYESGRRKPGTAFLKKFVCALIELDGERGYQVLSKYRYFLESDHKAVLDIAEYQKTAEPSEFCEVIEGKMLTHFDKAIHGHTVIDSINAILSLNAFDFYRLYGLTSERALIFTRVSTGRSPMVAVRVSNLKPSAVVLHGLEAERVDEMAKKIAEIERIPLVVTEIAIGEIVKRLRRKFA", "soluble on expression in E. coli": "not soluble"},
      {"sequence": "MAHHHHHHMGTLEAQTQGPGSMQVKLSQERAKELAENASFIASPGKGILAADESTGTIQKRFDNVGVENTEKNRAEYRSILFTTKGLGKYISGCILFEETLFQQAPNGQNMVDLLRAEGILPGIKVDKGLVTIPNTDEEVSTTGLDGLAERCQKYYNAGARFAKWRAVLSIDVKKNKPSNLSILETAHTLARYAAICQENGLVPIVEPEILADGDHSIEVCAEVTERVLAAVFKALNDHKVLLEGALLKPNMVTQGVDCKDKPAPQTVGFLTSRALRRTVPPALPGVMFLSGGQSESMATRHLNEINKCNKHPWSLSFSYGRALQSSVLKTWNGSMSNAAAAQDVLMKLAQQNSEASLGSLKTDLSDDGESLFEAKYIY", "soluble on expression in E. coli": "soluble"},
      {"sequence": "AHMAMIKMSPEEIRAKSQSYGQGSDQIRQILSDLTRAQGEIAANWEGQAFSRFEEQFQQLSPKVEKFAQLLEEIKQQLNSTADAVQEQDQQLSNNFGLQ", "soluble on expression in E. coli": "soluble"},
      {"sequence": "MLYSSNAILLTVICYELPLSERIRMLLRLEDLFDKIDFFSARDTSFEHHAVLVALFEILDVTSRSDLKSDLLQELDKQRTMLEGLRSNPEVSEKALDHILQDIRAAFRGLLDIPGRIGGHLRDDEWLMSVKQRMSIPGAACEFDLPAYHYWLNLAPEIRREDLKDWITPFTPIRSGINIVLNMLRNSGKNCCYTAVQGLFQQAGSEHQAHLLRLHISSEFPCVPEISANKYALNIRFVPWRSDHKTEVYEEDIPFELTFCSL", "soluble on expression in E. coli": "not soluble"},
      {"sequence": "MGSDKIHHHHHHVTALPYLIEPLVLPAAVDSPDAGAFREFGELSDALVLETWGNADRSSPQEARLQYWRDNPYTQLRLFFVWLDGRMVARSWIRFGIQENVHTAVLHVNVLAEFSGRGIGRALLRHAEELAAARGCTTLQTFTEHPADFDAGGAGVLKPETGTGGVPAAARGVRFALAAGYRLEQVERFSALELPLAGDTLAALETEALEKSGEQYELLHWTDRCPDGLAQQLAVLMSRMSTDTPVGALNYDEESWDVARVRHVEDTWQKAGLASLVAGARHRATGELAAYSVLQVSDAKPWLANQDDTLVASHHRGHRLGMLVKILNIRRLLAGYPGVERIITFNAAENDHMLAINVALGFHPEGYDGEWQKAL", "soluble on expression in E. coli": "not soluble"},
      {"sequence": "MLMPRRMKYRKQQRGRLKGATKGGDYVAFGDYGLVALEPAWITAQQIEAARVAMVRHFRRGGKIFIRIFPDKPYTKKPLEVRMGKGKGNVEGYVAVVKPGRVMFEVAGVTEEQAMEALRIAGHKLPIKTKIVRRDAYDEAQ", "soluble on expression in E. coli": "soluble"},
      {"sequence": "MVTKTITEQRAEVRIFAGNDPAHTATGSSGISSPTPALTPLMLDEATGKLVVWDGQKAGSAVGILVLPLEGTETALTYYKSGTFATEAIHWPESVDEHKKANAFAGSALSHAALP", "soluble on expression in E. coli": "soluble"},
      {"sequence": "MADVPDQVDINVNVVEKPTGAIMFGAGYSDREGIILNGSIAQNNILGTGNFLSLQVNTGSVNKVISASFNNPYYTINGVSLGLEAFKRDINTRSLSSVGMFNTDTTGANIRFGIPVAENDIVSLGLGYEHTKIDLRDDSPQRFKDFVDQFGKTSNNLPITLSWARDRRNSAIWTTSGMTQRLFGEFGLPFGDLNYYKVSYEQRWFFPVTKMFTLMLNGEVGVGDGYSDKPLPFFKNFFAGGFNSVRGYNINTLGPRDSDDRVLGGSKRIVGNIEVLFPVPFMKEDKSVRLSAFADGGTIVNSFSGLGFDDFRYSAGLAATWISPMGPLKFSVAQPLNNQSGDKLQRFQFQFGQTFLEHHHHHH", "soluble on expression in E. coli": "soluble"},
      {"sequence": "MAHHHHHHMEAPTDNDSMQAGPVVVGHADGVLTMPSEDFASLHLQPIQDDTWIRNAEIVHMENFVETEDGKRIKREILKEYVEEKERQGTFHPDPILEGMIYQEKFMEAYRTNGRSVDADKAHSYRLKLLETHRRARAIENADT", "soluble on expression in E. coli": "not soluble"},
      {"sequence": "MGSDKIHHHHHHMSKSHAVVHSALADEASQHNNTLSWFDITPADQERVRSLAPIADHVGEEIIADFYAHILRFEDAAQQFADDTQIERVKRGQKKYFQELINAELDESYAEERKRIGGIHERAGITPTLYVGSYAYYLQRLSQSILENGKEDPHKLFGLVLSMMKIAHYDMALALETYVEAREKTIEIHERQMRELPTPVLELREGLLLVPVVGALDSHRARTLTMQLLDGIRDTRSRAVVLDITGAVSIDSSVANHLFQAMTAARLMGAKSILAGISPTVAQELFRIGVDTKTFTTARNLQQGIELAASALEAHSKHSV", "soluble on expression in E. coli": "not soluble"},
      {"sequence": "MRVFALQLESFKENLMQSLFNSIPKKSVIVLPEYVINPFFHHNMGLDVNEISDQSARAVEFLSQKCEELDLIVSAPVLLEEHSKIYKKIALISKESVKYYTQQRLIPYPHWDEESFFDNEKSAFKELLVFERDGLKFAPLFGFEAHFDEIWVQAKNQGVDVVLLSSVATFESNERWRLLCQMRAFCASCVVVRANRIGAYRQIIVEEDQKNEFLWKFYGDSFVALPNGAIEDSLEGKMGALNAQIDKNDIDEWAKLWHFRTIKEGLEHHHHHH", "soluble on expression in E. coli": "not soluble"},
      {"sequence": "MGSDKIHHHHHHMRCPWRKTRRHSDNGWYGPRNQIRPDDHRLHRKVRKSRGDSRRAGNGSPRARCFEGAQRRGKSDGLSECGRMKNLLEMVELVRGKRMKIAVGAAEDEEVLKAVARAKEEEIVDPVLFGKRKDIETLVERMNLELEAEIVHVEDPFEAVRKAVESVSRNETQILMKGKIKTSDLFSVFLKKEYGLRTGRTLSAVSVHEVPGYHKILIISDGGLVISPNLQQRMDIVENSILVARALGIEKPKIALLGTGDLKSPLTLEIAALSKIFQQRNDCIVDGPLTLDLAISEELASKAGNSPVAGDADILIVPSIETGNILSKSLVYMARGRAAIVVVGGRVPVVLTSRADDEETRFLSIALSVLVAQKKG", "soluble on expression in E. coli": "not soluble"},
      {"sequence": "MGHHHHHHSHMPKNQEDSEEKGEKDEQTAKFLHKLAENGKDRGLPDCVVAQYEKNAWEATNSDEKYKSCEKCGMPPPPPIDGAKNSVVEEVCKNCETINEKPIGIESQILEKRRNEEILKRKEERKSLKRSAEESVTNSAPEKIQKKVHVKIMPRKCAPQILRRSLVPPPILTPKSAKKKLKLAENKEPDFLKALLNVTGNPV", "soluble on expression in E. coli": "not soluble"},
      {"sequence": "MTVLMRLVASAYSIAQKAGMIVRRVIAEGDLGIVEKTCATDLQTKADRLAQMSICSSLARKFPKLTIIGEEDLPSEEVDQELIEDSQWEEILKQPCPSQYSAIKEEDLVVWVDPLDGTKEYTEGLLDNVTVLIGIAYEGKAIAGVINQPYYNYEAGPDAVLGRTIWGVLGLGAFGFQLKEVPAGKHIITTTRSHSNKLVTDCVAAMNPDAVLRVGGAGNKIIQLIEGKASAYVFASPGCKKWDTCAPEVILHAVGGKLTDIHGNVLQYHKDVKHMNSAGVLATLRNYDYYASRVPESIKNALVPAHHHHHH", "soluble on expression in E. coli": "soluble"},
      {"sequence": "MESENQIAILDYIFNQVNQPNQPKIVWFSGEGEDEKINFLIRLNDFFKPKFVENTNDSSFLLSFRNHVETKNSTPLTQANFANIANKLLAVLFGSLQWKQLNK", "soluble on expression in E. coli": "not soluble"},
      {"sequence": "MNVVNNSRDVIYSSGIVFGTSGARGLVKDFTPQVCAAFTVSFVAVMQEHFSFDTVALAIDNRPSSYGMAQACAAALADKGVNCIFYGVVPTPALAFQSMSDNMPAIMVTGSHIPFERNGLKFYRPDGEITKHDEAAILSVEDTCSHLELKELIVSEMAAVNYISRYTSLFSTPFLKNKRIGIYEHSSAGRDLYKPLFIALGAEVVSLGRSDNFVPIDTEAVSKEDREKARSWAKEFDLDAIFSTDGDGDRPLIADEAGEWLRGDILGLLCSLALDAEAVAIPVSCNSIISSGRFFKHVKLTKIGSPYVIEAFNELSRSYSRIVGFEANGGFLLGSDICINEQNLHALPTRDAVLPAIMLLYKSRNTSISALVNELPTRYTHSDRLQGITTDKSQSLISMGRENLSNLLSYIGLENEGAISTDMTDGMRITLRDGCIVHLRASGNAPELRCYAEANLLNRAQDLVNTTLANIKKRCLL", "soluble on expression in E. coli": "not soluble"},
      {"sequence": "MSLKMETGKLLMELSNLDGPSGYETNVVSYIKSVIEPFVDEAKTTRHGSLIGYKKGKGIGKLAFFAHVDEIGFVVSKVEGQFARLEPVGGVDPKVVYASKVRIYTKNGIERGVIGMLAPHLQDSESRKKVPTYDEIFVDLSLCERGVRVGDIAVIDQTAFETNGKVVGKALDNRASCGVLVKVLEFLKRYDHPWDVYVVFSVQEETGCLGALTGAYEINPDAAIVMDVTFASEPPFSDHIELGKGPVIGLGPVVDRNLVQKIIEIAKKHNVSLQEEAVGGRSGTETDFVQLVRNGVRTSLISIPLKYMHTPVEMVDPRDVEELARLLSLVAVELEVEGGSHHHHHH", "soluble on expression in E. coli": "soluble"},
      {"sequence": "MSDTNYAVIYDLHSHTTASDGCLTPEALVHRAVEMRVGTLAITDHDTTAAIAPAREEISRSGLALNLIPGVEISTVWENHEIHIVGLNIDITHPLMCEFLAQQTERRNQRAQLIAERLEKAQIPGALEGAQRLAQGGAVTRGHFARFLVECGKASSMADVFKKYLARGKTGYVPPQWCTIEQAIDVIHHSGGKAVLAHPGRYNLSAKWLKRLVAHFAEHHGDAMEVAQCQQSPNERTQLAALARQHHLWASQGSDFHQPCPWIELGRKLWLPAGVEGVWQLWEQPQNTTERELLEHHHHHH", "soluble on expression in E. coli": "not soluble"},
      {"sequence": "AIAVLLRHPVLGTEQLPDSWPSHWNTAIVGIPGYSRQRSDLSVVKDVSSPCLPLVAMPSCDDGLASLWNDVSRAV", "soluble on expression in E. coli": "soluble"}
    ]}
  ]
}
